Experimental data from patent publication US9943572B2, “Synergistic glycocalyx treatment compositions and methods” (Microvascular Health Solutions, LLC, priority 2015, dated 2018).

Columns and labels:
[1] = Catalase administered to mice, concentration in blood vessels; assay type: in vivo; conditions: oral and/or intravenous administration
Description: Thus, in addition to (naturally) produced […], which may be produced and secreted into the blood stream, exogenous or administered catalase can be absorbed into the blood stream and be available for oxidant scavenging at or adjacent to the endothelial glycocalyx (and SOD bound thereto). Accordingly, introduction and/or administration of catalase can also provide antioxidant activity in blood vessels and/or at the endothelial glycocalyx.

[2] = test system: cultured endothelial cells; test: Labeled glucosamine administered to cultured endothelial cells; assay type: cell-based
Description: Indeed, glucosamine can increase synthesis of two main constituents of the endothelial glycocalyx, namely heparan sulfate and hyaluronan. […] Thus, the addition and/or administration of glucosamine can support endothelial glycocalyx production by providing a (necessary and/or rate-limiting) component in the synthesis thereof. Accordingly, glucosamine can be or comprise a molecular precursor of endothelial glycocalyx.

endothelial glycocalyx = test: Exogenous labeled SOD administered to mice, localization; assay type: in vivo; conditions: orally and/or intravenously
Description: By so doing, the local concentration of SOD at the endothelial glycocalyx is increased, providing added or enhanced (site-directed) protection against oxygen radicals at the endothelial glycocalyx. Thus, in addition to (naturally) produced SOD, which may be synthesized and bound to the endothelium, exogenous or administered SOD can (directly) associate with (bind to) endothelial glycocalyx. Accordingly, introduction and/or administration of SOD can provide site-directed antioxidant activity at the endothelial glycocalyx.

In the case of catalase, the “catalase concentrations in blood vessels” value [1] was “increases catalase concentrations in blood vessels”.
With `N[C@H]1C(O)O[C@H](CO)[C@@H](O)[C@@H]1O` (stereo partly drawn) [glucosamine, Glucosamine] the “incorporation of labeled glucosamine” value [2] was “is incorporated in the glycocalyx”.
With Superoxide dismutase [SOD] the “localization of exogenous labeled SOD” value (endothelial glycocalyx) was “co-localizes (binds (directly) to) the endothelial glycocalyx”.
